The test system of the data set is Escherichia coli TOP10. Briefly: shrunken log2 fold change of peptide-encoding DNA abundance (4.5 h post-induction vs induction); higher = less antimicrobial activity (less host growth inhibition). Conditions: time post-induction: 4.5 h; library: site-saturation at positions 5, 18, 19, 20.
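Note: peptides expressed intracellularly from a pBAD plasmid library in pooled LB shake-flask culture, induced with 0.3% L-arabinose, DNA abundance read by NGS, three biological replicates, DESeq2 with apeglm shrinkage.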

For RRIRERPPRLPRPRPRPYVNPRP, the “shrunken log2 fold change” value stood at 0.0121.

Consider RRIRIRPPRLPRPRPRPQARPRP, for which the “shrunken log2 fold change” value was -0.115. Next, RRIRSRPPRLPRPRPRPDKTPRP: 0.178; RRIRMRPPRLPRPRPRPTNAPRP: 0.408. Turning to RRIRHRPPRLPRPRPRPLANPRP, the “shrunken log2 fold change” value is -0.263.

Regarding RRIRKRPPRLPRPRPRPLYNPRP, the “shrunken log2 fold change” value was -0.263.

Regarding RRIRERPPRLPRPRPRPMNVPRP, the “shrunken log2 fold change” value was -0.00243.

For the sequence RRIRLRPPRLPRPRPRPDPDPRP, the “shrunken log2 fold change” value was -0.0677. On to RRIRWRPPRLPRPRPRPRPEPRP, for which the “shrunken log2 fold change” value amounted to 0.502. As to RRIRRRPPRLPRPRPRPKAMPRP, the “shrunken log2 fold change” value was found to be 0.431. Next, RRIRYRPPRLPRPRPRPQRPPRP: 0.376; RRIRTRPPRLPRPRPRPWHDPRP: -0.0708; RRIRTRPPRLPRPRPRPVNNPRP: -0.0819. For RRIRMRPPRLPRPRPRPLQQPRP the value was 2.85. For RRIRERPPRLPRPRPRPMNLPRP the value was -0.0666. In the case of RRIRMRPPRLPRPRPRPNDTPRP, the “shrunken log2 fold change” value is 0.11. Next, RRIRDRPPRLPRPRPRPWKNPRP: -0.0182; RRIRNRPPRLPRPRPRPSHVPRP: -0.0765; RRIRIRPPRLPRPRPRPRNAPRP: 0.0687. In the case of RRIRKRPPRLPRPRPRPAWVPRP, the “shrunken log2 fold change” value stood at 0.483. For RRIRYRPPRLPRPRPRPLKRPRP the value was -0.234; for RRIRFRPPRLPRPRPRPGYDPRP, -0.292.

As to RRIRSRPPRLPRPRPRPWNQPRP, the “shrunken log2 fold change” value was determined as 0.0379.

On to RRIRWRPPRLPRPRPRPWTIPRP, for which the “shrunken log2 fold change” value was -0.0951.

With RRIRHRPPRLPRPRPRPAHCPRP, the “shrunken log2 fold change” value worked out at 0.115. Turning to RRIRCRPPRLPRPRPRPQCQPRP, the “shrunken log2 fold change” value was 0.0557. Regarding RRIRGRPPRLPRPRPRPRNYPRP, the “shrunken log2 fold change” value came to 0.00522. As for RRIRWRPPRLPRPRPRPITPPRP, the “shrunken log2 fold change” value stood at 0.145. Next, RRIRLRPPRLPRPRPRPNIPPRP: -0.823; RRIRSRPPRLPRPRPRPTWHPRP: 0.179; RRIRQRPPRLPRPRPRPSRMPRP: -0.34. RRIRARPPRLPRPRPRPGVCPRP: the “shrunken log2 fold change” value was found to be 0.571. For RRIRERPPRLPRPRPRPSQHPRP the value was -0.49.

As for RRIRDRPPRLPRPRPRPNMHPRP, the “shrunken log2 fold change” value is 1.35.

Turning to RRIRNRPPRLPRPRPRPCSDPRP, the “shrunken log2 fold change” value stood at 0.0121. For RRIRYRPPRLPRPRPRPDAHPRP the value was -0.0156; for RRIRPRPPRLPRPRPRPFKGPRP, -0.209. Consider RRIRARPPRLPRPRPRPGMMPRP, for which the “shrunken log2 fold change” value is 0.207. Regarding RRIRIRPPRLPRPRPRPAQAPRP, the “shrunken log2 fold change” value turned out to be 0.2. RRIRFRPPRLPRPRPRPPGKPRP: the “shrunken log2 fold change” value was found to be 0.2. With RRIRHRPPRLPRPRPRPGCIPRP, the “shrunken log2 fold change” value is -1.21. As for RRIRTRPPRLPRPRPRPVYRPRP, the “shrunken log2 fold change” value was -0.361. In the case of RRIRMRPPRLPRPRPRPARTPRP, the “shrunken log2 fold change” value amounted to 1.53. As for RRIRHRPPRLPRPRPRPAGAPRP, the “shrunken log2 fold change” value worked out at 0.199. Consider RRIRFRPPRLPRPRPRPYYVPRP, for which the “shrunken log2 fold change” value is -0.14.

In the case of RRIRIRPPRLPRPRPRPETDPRP, the “shrunken log2 fold change” value was -0.0362. Turning to RRIRYRPPRLPRPRPRPFMDPRP, the “shrunken log2 fold change” value is -0.2. Next, RRIRDRPPRLPRPRPRPISGPRP: 0.0039; RRIRCRPPRLPRPRPRPNTNPRP: -0.66; RRIRCRPPRLPRPRPRPSYKPRP: -0.572. Next, RRIRIRPPRLPRPRPRPIMNPRP: -1.27; RRIRFRPPRLPRPRPRPNRLPRP: -0.121.

Consider RRIRIRPPRLPRPRPRPSATPRP, for which the “shrunken log2 fold change” value is -0.17.

Turning to RRIRGRPPRLPRPRPRPWFAPRP, the “shrunken log2 fold change” value is 0.0421. For the sequence RRIRQRPPRLPRPRPRPFNSPRP, the “shrunken log2 fold change” value is -0.3.

For RRIRPRPPRLPRPRPRPPKDPRP, the “shrunken log2 fold change” value came out at 0.225.

RRIRYRPPRLPRPRPRPDFPPRP: the “shrunken log2 fold change” value was -0.48. RRIRHRPPRLPRPRPRPTQSPRP: the “shrunken log2 fold change” value worked out at 0.113. As to RRIRWRPPRLPRPRPRPCPTPRP, the “shrunken log2 fold change” value worked out at 0.0714.

With RRIRWRPPRLPRPRPRPFQVPRP, the “shrunken log2 fold change” value was -0.19. Next, RRIRCRPPRLPRPRPRPGLDPRP: 0.191. Turning to RRIRSRPPRLPRPRPRPKMTPRP, the “shrunken log2 fold change” value came to 0.0901. As for RRIRMRPPRLPRPRPRPDGSPRP, the “shrunken log2 fold change” value turned out to be 0.107. Next, RRIRLRPPRLPRPRPRPDLLPRP: -0.0261. In the case of RRIRYRPPRLPRPRPRPTLVPRP, the “shrunken log2 fold change” value is -0.0641. Consider RRIRVRPPRLPRPRPRPSQVPRP, for which the “shrunken log2 fold change” value was -0.215. On to RRIRTRPPRLPRPRPRPCACPRP, for which the “shrunken log2 fold change” value was found to be 0.0169. With RRIRKRPPRLPRPRPRPSANPRP, the “shrunken log2 fold change” value is 0.0126. On to RRIRRRPPRLPRPRPRPDDTPRP, for which the “shrunken log2 fold change” value came out at 0.139. For RRIRNRPPRLPRPRPRPPGMPRP the value was -0.138; for RRIRCRPPRLPRPRPRPMIVPRP, 0.0976.

In the case of RRIRFRPPRLPRPRPRPISVPRP, the “shrunken log2 fold change” value was 0.0197. RRIRRRPPRLPRPRPRPPGSPRP: the “shrunken log2 fold change” value amounted to 0.413.

Take RRIRIRPPRLPRPRPRPNCGPRP: the “shrunken log2 fold change” value worked out at 0.0437. Next, RRIRRRPPRLPRPRPRPWLCPRP: 0.102. RRIRKRPPRLPRPRPRPKTQPRP: the “shrunken log2 fold change” value is 0.422.

In the case of RRIRTRPPRLPRPRPRPERTPRP, the “shrunken log2 fold change” value is -0.0336. On to RRIRARPPRLPRPRPRPCSWPRP, for which the “shrunken log2 fold change” value turned out to be 0.0664. Next, RRIRLRPPRLPRPRPRPNGYPRP: -0.315; RRIRYRPPRLPRPRPRPEYIPRP: -0.348. Next, RRIRGRPPRLPRPRPRPICWPRP: 0.714. Next, RRIRPRPPRLPRPRPRPGSTPRP: 0.123; RRIRPRPPRLPRPRPRPFYTPRP: -0.429; RRIRGRPPRLPRPRPRPFVTPRP: 0.0292.

As for RRIRQRPPRLPRPRPRPIYFPRP, the “shrunken log2 fold change” value was -0.115. Turning to RRIRCRPPRLPRPRPRPERMPRP, the “shrunken log2 fold change” value was -0.015.

For RRIRLRPPRLPRPRPRPQGDPRP, the “shrunken log2 fold change” value is -0.0165.

For RRIRPRPPRLPRPRPRPYVCPRP, the “shrunken log2 fold change” value is -0.73.

For RRIRSRPPRLPRPRPRPYLDPRP, the “shrunken log2 fold change” value is -0.175. Regarding RRIRWRPPRLPRPRPRPTVVPRP, the “shrunken log2 fold change” value was 0.134. Next, RRIRGRPPRLPRPRPRPICGPRP: 0.728. On to RRIRVRPPRLPRPRPRPPVAPRP, for which the “shrunken log2 fold change” value was 0.466. Regarding RRIRGRPPRLPRPRPRPAAGPRP, the “shrunken log2 fold change” value was found to be 1.18.

For RRIRGRPPRLPRPRPRPTSMPRP, the “shrunken log2 fold change” value is 0.643. Next, RRIRTRPPRLPRPRPRPTWLPRP: 0.511.

Turning to RRIRERPPRLPRPRPRPECHPRP, the “shrunken log2 fold change” value amounted to 0.0213.

As for RRIRNRPPRLPRPRPRPLWQPRP, the “shrunken log2 fold change” value is -0.303. Consider RRIRWRPPRLPRPRPRPPKNPRP, for which the “shrunken log2 fold change” value came out at 0.757. Turning to RRIRFRPPRLPRPRPRPTYFPRP, the “shrunken log2 fold change” value is -0.175. In the case of RRIRPRPPRLPRPRPRPRSVPRP, the “shrunken log2 fold change” value worked out at 0.0746. Regarding RRIRTRPPRLPRPRPRPTLCPRP, the “shrunken log2 fold change” value stood at 0.148. For RRIRGRPPRLPRPRPRPPSLPRP, the “shrunken log2 fold change” value amounted to 0.477.

For RRIRSRPPRLPRPRPRPKDRPRP, the “shrunken log2 fold change” value turned out to be 0.201. In the case of RRIRFRPPRLPRPRPRPIYKPRP, the “shrunken log2 fold change” value was -0.836. As to RRIRSRPPRLPRPRPRPEQLPRP, the “shrunken log2 fold change” value is -0.0808. For RRIRHRPPRLPRPRPRPGNYPRP the value was 0.113; for RRIRQRPPRLPRPRPRPLTFPRP, -0.0576.

On to RRIRSRPPRLPRPRPRPNSQPRP, for which the “shrunken log2 fold change” value was -0.118. With RRIRMRPPRLPRPRPRPSGNPRP, the “shrunken log2 fold change” value is -0.14. For RRIRNRPPRLPRPRPRPRIAPRP the value was 0.069; for RRIRVRPPRLPRPRPRPMTYPRP, -0.494. As to RRIRHRPPRLPRPRPRPLRSPRP, the “shrunken log2 fold change” value came to 0.549.

Consider RRIRARPPRLPRPRPRPVKHPRP, for which the “shrunken log2 fold change” value came to 0.0139. Next, RRIRNRPPRLPRPRPRPHSVPRP: -0.015; RRIRWRPPRLPRPRPRPVFTPRP: 0.0746. For the sequence RRIRSRPPRLPRPRPRPCTHPRP, the “shrunken log2 fold change” value was -0.00194. Turning to RRIRVRPPRLPRPRPRPELHPRP, the “shrunken log2 fold change” value worked out at 0.133. For RRIRDRPPRLPRPRPRPDPDPRP the value was 0.671; for RRIRERPPRLPRPRPRPGDCPRP, -0.0777. Consider RRIRCRPPRLPRPRPRPPYAPRP, for which the “shrunken log2 fold change” value came out at 0.141. With RRIRDRPPRLPRPRPRPTTPPRP, the “shrunken log2 fold change” value stood at 0.351.

Take RRIRNRPPRLPRPRPRPGGNPRP: the “shrunken log2 fold change” value was -0.0331. Consider RRIRCRPPRLPRPRPRPRHEPRP, for which the “shrunken log2 fold change” value is -0.117. Next, RRIRLRPPRLPRPRPRPSLYPRP: -0.431. For RRIRKRPPRLPRPRPRPICAPRP the value was 0.363.

Source of the values: the supplement of paper PMC9112550, “Optimization of the antimicrobial peptide Bac7 by deep mutational scanning” (BMC Biology, 2022).
